# Experimental data published in publication PMC5501846, “X-Ray snapshots of a pyridoxal enzyme: a catalytic mechanism involving concerted [1,5]-hydrogen sigmatropy in methionine γ-lyase” (Scientific Reports, 2017).
# T1: EhMGL1 (Entamoeba histolytica, UniProt Q86D28)
# T1 construct: gene metg; homotetramer
# T1 sequence (Q86D28 1-389): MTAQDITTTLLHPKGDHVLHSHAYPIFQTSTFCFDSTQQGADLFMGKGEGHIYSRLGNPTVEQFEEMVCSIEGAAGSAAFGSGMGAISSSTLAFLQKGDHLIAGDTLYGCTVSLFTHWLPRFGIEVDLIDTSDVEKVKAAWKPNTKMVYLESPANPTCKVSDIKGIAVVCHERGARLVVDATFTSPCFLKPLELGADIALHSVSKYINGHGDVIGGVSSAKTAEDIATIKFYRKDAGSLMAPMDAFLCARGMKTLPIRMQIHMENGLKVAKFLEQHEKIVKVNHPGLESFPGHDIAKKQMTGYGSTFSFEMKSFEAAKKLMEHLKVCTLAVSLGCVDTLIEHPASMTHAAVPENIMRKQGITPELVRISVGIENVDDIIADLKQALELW
# B1: EhMGL1 (Entamoeba histolytica) (protein)
# chain: T1 sequence (Q86D28 1-389)
# Experiments:
# EhMGL1 [1] = target: T1, EhMGL1; assay: X-ray crystallography, […] Å; format: binding; conditions: covalent, Schiff base with Lys205; substrate-free enzyme
# EhMGL1 [2] = target: T1, EhMGL1; assay: X-ray crystallography of methionine-soaked crystals; format: binding; conditions: covalent Schiff base with PLP in intermediates; Michaelis complex also seen; 50 mM L-methionine soak 30–120 s, 293 K
# [3] = target: L-methionine γ-lyase from Entamoeba histolytica (EhMGL1) (Entamoeba histolytica); assay: crystal structure; hanging-drop vapor diffusion at 277 K, 1.8 M ammonium sulfate, 0.1 M cacodylate pH 6.6, 0.1 M lithium citrate, 100 μM PLP; substrate-free and methionine-soaked crystals (50 mM L-methionine, 30-120 s, 293 K); tetramer of two catalytic dimers in the crystal
# purified protein [4] = substrate: C[Se]CC[C@H](N)C(=O)O; assay: purified protein; conditions: 100 mM phosphate pH 7.0, 1 mM DTT, 20 μM PLP, 37 °C
# purified protein [5] = substrate: COCC[C@H](N)C(=O)O; assay: purified protein; conditions: 100 mM phosphate pH 7.0, 1 mM DTT, 20 μM PLP, 37 °C
molecule,measurement,setting,value
Cc1ncc(COP(=O)(O)O)c(C=O)c1O [pyridoxal 5′-phosphate],"X-ray crystallography, 1.97 Å",EhMGL1 [1],the active site binds a PLP cofactor that forms a Schiff base
"CSCC[C@H](N)C(=O)O [CH3S, L-methionine]",X-ray crystallography of methionine-soaked crystals,EhMGL1 [2],Crystals of EhMGL1 complexed with reaction intermediates were prepared by soaking crystals
L-methionine γ-lyase from Entamoeba histolytica (EhMGL1) (enzyme),stoichiometry N,[3],4
B1,Km,purified protein [4],410 ± 70 µM
same,Km,purified protein [5],2500 ± 240 µM
same,kcat,purified protein [5],1.04 ± 0.35 s⁻¹
same,kcat/Km,purified protein [5],420 ± 150 M⁻¹ s⁻¹
